This is an account of results in paper PMC3739937 (Molecular Microbiology, 2013).

B2: OmpF (natural protein, E. coli, UniProt P02931 23-362, looked up)
chain: AEIYNKDGNKVDLYGKAVGLHYFSKGNGENSYGGNGDMTYARLGFKGETQINSDLTGYGQWEYNFQGNNSEGADAQTGNKTRLAFAGLKYADVGSFDYGRNYGVVYDALGYTDMLPEFGGDTAYSDDFFVGRVGGVATYRNSNFFGLVDGLNFAVQYLGKNERDTARRSNGDGVGGSISYEYEGFGIVGAYGAADRTNLQEAQPLGNGKKAEQWATGLKYDANNIYLAANYGETRNATPITNKFTNTSGFANKTQDVLLVAQYQFDFGLRPSIAYTKSKAKDVEGIGDVDLVNYFEVGATYYFNKNMSTYVDYIINQIDSDNKLGVGSDDTVAVGIVYQF

The assay “OmpF” has as its target B2. Kind of assay: ITC. For orientation: In ITC the heat of successive injections is recorded.
A further assay concerns the target T1, Colicin N (E. coli, UniProt P08083 1-387).
T1 sequence (looked up): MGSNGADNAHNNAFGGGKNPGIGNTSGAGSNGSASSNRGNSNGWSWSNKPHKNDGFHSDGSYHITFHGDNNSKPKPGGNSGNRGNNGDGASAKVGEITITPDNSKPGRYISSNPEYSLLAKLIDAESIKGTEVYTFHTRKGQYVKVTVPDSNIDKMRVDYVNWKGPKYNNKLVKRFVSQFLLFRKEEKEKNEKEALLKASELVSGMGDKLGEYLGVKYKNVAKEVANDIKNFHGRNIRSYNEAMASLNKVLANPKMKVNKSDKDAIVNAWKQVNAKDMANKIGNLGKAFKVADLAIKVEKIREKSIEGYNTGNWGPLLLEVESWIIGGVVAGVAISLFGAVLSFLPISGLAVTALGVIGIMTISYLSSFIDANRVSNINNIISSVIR
Briefly: ITC.

B1: ColN-T (isolated unstructured T-domain of colicin N) (domain or fragment, E. coli, UniProt P08083 1-90, looked up)
chain: MGSNGADNAHNNAFGGGKNPGIGNTSGAGSNGSASSNRGNSNGWSWSNKPHKNDGFHSDGSYHITFHGDNNSKPKPGGNSGNRGNNGDGA
B1: in the assay with OmpF, the Kd is 3.48 µM, the dH is -19.1 kcal/mol and the “stoichiometry N” value was 2.29.
For B2, the binding result with Colicin N is reported as “binds”.

One may read the Kd as a measure of binding affinity in units of concentration. Read a high Kd as a looser complex. Broadly, the stoichiometry N is a count of units in the complex or per binding partner.
